Measured values from PMC4294677 (Molecular Biology of the Cell, 2015).

Columns and labels:
[1] = target: phospho-HOPS (HOPS phosphorylated by the vacuolar kinase Yck3p) (S. cerevisiae, UniProt P12868;Q03308;P27801;P20795;Q07468;P38959); test: liposome floatation
[2] = target: HOPS (homotypic fusion and vacuole protein sorting complex) (S. cerevisiae, UniProt P12868;Q03308;P27801;P20795;Q07468;P38959); test: liposome floatation

B1: Ypt7p:GTP (vacuolar Rab-family GTPase Ypt7p in its GTP-bound state) (natural protein)
chain: MSSRKKNILKVIILGDSGVGKTSLMHRYVNDKYSQQYKATIGADFLTKEVTVDGDKVATMQVWDTAGQERFQSLGVAFYRGADCCVLVYDVTNASSFENIKSWRDEFLVHANVNSPETFPFVILGNKIDAEESKKIVSEKSAQELAKSLGDIPLFLTSAKNAINVDTAFEEIARSALQQNQADTEAFEDDYNDAINIRLDGENNSCSC
**Q.** Which results are given for B1?
**A.** binding result [1]: binds; binding result [2]: binds
